Experimental data: the supplement of paper PMC10567573
± gives the standard deviation.

Experiment: protein stability index of a GFP-peptide fusion (GPS, HEK-293T) (PSI 1-6); higher = more stable
[1] = treatment: DMSO, c terminus: a fixed tail appended
[2] = treatment: MLN4924 1 uM, 8 h, c terminus: a fixed tail appended
[3] = treatment: DMSO, c terminus: native
[4] = treatment: MLN4924 1 uM, 8 h, c terminus: native
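Also: 24-mer peptide tiles fused after GFP, lentivirally expressed, FACS-sorted into six equal bins by GFP/DsRed ratio, decoded by Illumina sequencing, PSI is the read-weighted mean bin number.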

Sequence | protein stability index [1] | protein stability index [2] | protein stability index [3] | protein stability index [4]
ELDGPKQIFFGRRKDMIAEKLAPS [ZNF396] | 3.62 ± 0.11 | 3.62 ± 0.27 |  | 
ELEGTEELCCVAELDNPMQQKWTK [C2CD2L] | 4.58 ± 0.45 | 4.77 ± 0.28 |  | 
ELFKKDPGFDRGQFHKQIAVMRGQ [PI4K2A] | 2.8 ± 0.33 | 3.03 ± 0.19 |  | 
ELFPTGKQLEPLVAPLADGKVAVG [VPS39] | 3.84 ± 0.25 | 3.8 ± 0.24 |  | 
ELIILYEKKGLHEKALQVLVDQSK [VPS39] | 2.26 ± 0.25 | 2.53 ± 0.22 |  | 
ELRRDSSESQLASTESDKPTTGRV [C18orf25] | 5.28 ± 0.38 | 5.39 ± 0.21 |  | 
EMIQTSKTEITDLRRTMQELEIEL [KRT15] | 3.65 ± 0.25 | 3.65 ± 0.13 |  | 
EMPYNIWCDGCKNHIGMGVRYNAE [YJU2B] | 2.27 ± 0.32 | 2.49 ± 0.25 |  | 
ENYDIIKTYHYLYLAMLERFQDGD [FEM1B] | 2.37 ± 0.56 | 2.52 ± 0.54 |  | 
EPEAASSRGSPVRVKREFEPASAR [USP39] | 5.04 ± 0.16 | 5.11 ± 0.16 |  | 
EPLMTNKLSETFLQIYQYVPKDQR [DLC1] | 3.05 ± 0.33 | 3.47 ± 0.47 |  | 
EQAKENENGELQKIILPRSRVKG [ZC2HC1C] |  |  | 3.42 ± 0.47 | 3.42 ± 0.28
EQFPELMNMLWSRMLKDNKKNWRR [CLINT1] | 2.14 ± 0.037 | 2.39 ± 0.26 |  | 
EQLEAEAQALRQELERQRRLLGSV [PBXIP1] | 4.04 ± 0.22 | 4.02 ± 0.21 |  | 
EQVFSLGDGVSGGFFGIRDSSFL [ZBED1] |  |  | 3.36 ± 0.31 | 3.61 ± 0.27
ERICSEEERAKAKHLARQLEEKDR [CHCHD3] | 5.4 ± 0.13 | 5.17 ± 0.35 |  | 
ERLCMGVDCTEIFGGNPRFLSLHR [ZNF263] | 2.54 ± 0.24 | 2.83 ± 0.13 |  | 
ERSGCALTDAVAPGNKGRGQRGNT [TCF25] | 5.22 ± 0.11 | 5.23 ± 0.13 |  | 
ERSQVRGSAPPRATPGGGTGEAAR [PCDHGC5] | 5.13 ± 0.31 | 5.4 ± 0.18 |  | 
ESFFVDYEENEGAGPYLLNGSYLE [ADAMTSL2] | 3.658 ± 0.034 | 3.82 ± 0.072 |  | 
ESGEHFRSLLGYDPQILQMLKEEH [RAD54B] | 3.77 ± 0.35 | 3.56 ± 0.55 |  | 
ESKIREHLEKKGPQVRDWSHYFKI [KRT18] | 2.82 ± 0.26 | 2.67 ± 0.28 |  | 
ETPNPPQSAQIACSSPSVVASLPL [MAGEA10] | 4.62 ± 0.25 | 4.59 ± 0.38 |  | 

Sequence | protein stability index [1] | protein stability index [2] | protein stability index [3] | protein stability index [4]
ETQTQRGGEFQCGLEAASVYSDHT [RNF180] | 2.33 ± 0.16 | 2.2 ± 0.078 |  | 
EVANKDLTERKYKGDSTIRELKAK [SASS6] | 3.27 ± 0.39 | 3.27 ± 0.53 |  | 
EVMESEEFMLLPANQLIDIISSDE [KLHL20] | 4.54 ± 0.23 | 4.64 ± 0.32 |  | 
EWDKNKSAFPFSDKLGELSDKIGS [CLINT1] | 3.57 ± 0.37 | 3.6 ± 0.22 |  | 
EYTLTGLKFDMKYMNFRVKACNKA [FSD1] | 2.79 ± 0.12 | 2.77 ± 0.45 |  | 
FAIGARARAEAEQMAKKAEAFQLY [FLOT1] | 2.78 ± 0.42 | 3.02 ± 0.58 |  | 
FDYEYDWIGKQLPTPVGAVQQDPA [CSNK1G3] | 3.63 ± 0.2 | 3.65 ± 0.44 |  | 
FEFQVRVCDSCYDSIKDEDRTSLA [WDFY1] | 2.78 ± 0.23 | 3 ± 0.61 |  | 
FEFSVDSFQIVLDPMLDFYSDKNA [TENT5D] | 2.91 ± 0.93 | 2.52 ± 0.42 |  | 
FFLFIGVILFSSAVYFAEADDPTS [KCNA3] | 2.8 ± 0.1 | 3.09 ± 0.2 |  | 
FGCFFYVYYIFERLCAPLFRNIKQ [SOAT1] | 2.37 ± 0.2 | 2.69 ± 0.068 |  | 
FILGRLCVPVFANMSREPFSTRAL [SOAT2] | 2.94 ± 0.56 | 2.56 ± 0.52 |  | 
FKAYIKIYQGEDLPHPKSMLQATA [ATL3] | 2.78 ± 0.35 | 2.5 ± 0.57 |  | 
FKDKLEETKGQINNSIKDLTDGHF [SERPINB5] | 4.42 ± 0.2 | 4.5 ± 0.2 |  | 
FKPLNSTPATTTEPPKPTFPAYTQ [ZNF207] | 3.84 ± 0.26 | 3.9 ± 0.14 |  | 
FKRWIYLNDQNLCIPASSSFVYGA [GAN] | 2.41 ± 0.37 | 2.47 ± 0.38 |  | 
FLVFILNAGLVWFFPWREAKPGST [MFSD9] | 3.21 ± 0.74 | 3.11 ± 0.19 |  | 
FMEERELLGQDEETAMRKSLGEEE [RSPH3] | 5.58 ± 0.12 | 5.46 ± 0.4 |  | 
FMSPCDKFRAKGRKPCKLMLQVVK [MCOLN1] | 2.26 ± 0.26 | 2.38 ± 0.24 |  | 
FPEELHRKAALEQDLAFWYGPRWQ [HMOX1] | 2.3 ± 0.25 | 2.62 ± 0.31 |  | 
FSDGEKCRREAFRRLGNGVSDDLS [PHTF1] | 4.05 ± 0.13 | 3.82 ± 0.17 |  | 
FSEEDEEETTSQDWGTPRELTFSY [RTN2] | 4.22 ± 0.15 | 4.22 ± 0.49 |  | 
FSHITSARKARKYEIPHFRLKKVE [PHTF1] | 2.53 ± 0.47 | 2.82 ± 0.4 |  | 

Sequence | protein stability index [1] | protein stability index [2] | protein stability index [3] | protein stability index [4]
FSIDEELVYENFYADFGPLNLAMV [CDC14A] | 2.75 ± 0.6 | 2.43 ± 0.6 |  | 
FSVSSTSRRIYRCRNCINLQNEAQ [IQUB] | 2.02 ± 0.19 | 2.34 ± 0.34 |  | 
FTDPFFIVETLCIIWFSFELVVRF [KCNA1] | 3.26 ± 0.13 | 3.18 ± 0.69 |  | 
FTDTSIILFLNKKDLFEEKIKKSP [GNAI1] | 2.2 ± 0.97 | 2.35 ± 1.1 |  | 
FVALKSVRVPNGGGGGGGLPISTV [CDK4] | 2.52 ± 0.24 | 2.41 ± 0.33 |  | 
FVETRLRDLPDTPRRFTFYPCVLA [TRIM39] | 2.63 ± 0.68 | 2.16 ± 0.071 |  | 
FVSALGITAGAHRLWSHRSYKARL [SCD] | 2.73 ± 0.93 | 2.5 ± 0.24 |  | 
FYRYKMPRLIAKVEGKGNGIKTVI [EIF5] | 2.28 ± 0.45 | 2.26 ± 0.23 |  | 
GAFETVLASAYTGRLSMAAADIVN [ZBTB22] | 2.88 ± 0.61 | 2.91 ± 0.59 |  | 
GALTGKENNMLQPETHIFTAPEEV [DMRTC1] | 5.19 ± 0.17 | 5.01 ± 0.16 |  | 
GARYEVTVVSVRGFEESEPLTGFL [TNXB] | 2.53 ± 0.79 | 2.38 ± 0.59 |  | 
GATALHFAAEAGHIDIVKELIKWR [FEM1B] | 2.39 ± 0.35 | 2.43 ± 0.33 |  | 
GATVGRKSRRSRSESETSTMAAKK [C18orf25] | 5.23 ± 0.31 | 5.48 ± 0.27 |  | 
GCILFEYYRGFTLFQTHENREHLV [CLK3] | 2.97 ± 0.85 | 2.21 ± 0.69 |  | 
GDIHLSPEEPAASTDPNIVRKKER [TAF7L] | 5.38 ± 0.32 | 5.43 ± 0.27 |  | 
GDKASPDQNASTHTPQSSVKTSVP [CLINT1] | 5.54 ± 0.19 | 5.38 ± 0.28 |  | 
GDQEGPRPARSTLDELLGRGMATK [FBF1] | 4.62 ± 0.27 | 4.73 ± 0.11 |  | 
GDRAGDASKDILLGPWDMVLAQG [SCARA5] |  |  | 2.76 ± 0.64 | 2.69 ± 0.54
GDTSATESGDEVPVELYTAFQHTP [KMT2E] | 4.97 ± 0.18 | 5.04 ± 0.17 |  | 
GERVVINISGLRFETQLKTLCQFP [KCNA3] | 2.61 ± 0.45 | 2.19 ± 0.083 |  | 
GESDNPLRFTSGLVVALDVDATLE [INTS4] | 3.23 ± 0.37 | 3.54 ± 0.15 |  | 
GFIKKFVLCPECENPETDLHVNPK [EIF5] | 3.09 ± 0.38 | 3.29 ± 0.05 |  | 
GGLLDEAMLDEISLMDLAIEEGFN [NFE2L1] | 4.16 ± 0.21 | 3.86 ± 0.31 |  | 

Sequence | protein stability index [1] | protein stability index [2] | protein stability index [3] | protein stability index [4]
GGLSLHDYKLLKPSLAVNLADPYR [JUNB] | 2.65 ± 0.13 | 2.76 ± 0.098 |  | 
GGPAGQAGRGGAAGTAGVGETGSG [MYOZ1] | 5.42 ± 0.21 | 5.34 ± 0.32 |  | 
GGSSGKGTTLRGRSDADLVVFLSP [OAS1] | 2.73 ± 0.17 | 3.07 ± 0.35 |  | 
GGWETVFRPVSETCTDRSGISTGH [FUT8] | 3.48 ± 0.35 | 3.43 ± 0.22 |  | 
GGYRPAEDKIFPVPEEPPVKKLMR [ZBED1] | 3.99 ± 0.13 | 4.36 ± 0.3 |  | 
GKIIGGMWRDLTDEEKQEYLNEYE [SMARCE1] | 4.56 ± 0.14 | 4.64 ± 0.27 |  | 
GKNNEFSRLVAGEYLSFFDFSGLT [PSD2] | 2.13 ± 0.41 | 2.13 ± 0.32 |  | 
GKRMEFTSSCPNVSERSFDNVRSL [CRYBA1] | 4.12 ± 0.3 | 4.17 ± 0.28 |  | 
GKRTPRGRRGWKKFYAVLKGTILY [PSD2] | 2.97 ± 1.6 | 2.61 ± 0.73 |  | 
GKVAVGQDDLTVVLNEEGICTQKC [VPS39] | 4.91 ± 0.22 | 4.79 ± 0.28 |  | 
GLEQFINKVAGHPLAQNERCLHMF [SNX3] | 2.72 ± 0.61 | 2.21 ± 0.11 |  | 
GNIKGIEGHSPGNLPKFCHECGTK [ZC2HC1A] | 3.82 ± 0.52 | 4.59 ± 0.085 |  | 
GPASRMDPESERALQAPHSPSKTD [PBXIP1] | 5.46 ± 0.24 | 5.34 ± 0.23 |  | 
GPFRTLLQFLYTGQLDEKEKDLVG [RHOBTB1] | 2 ± 0.054 | 2.49 ± 0.3 |  | 
GPMCDLLWSDPDDRGGWGISPRGA [PPP2CA] | 3.1 ± 0.42 | 3.21 ± 0.33 |  | 
GPNPSKLIQQFLTLRPDQQLHIFN [CDS2] | 2.16 ± 0.42 | 2.09 ± 0.25 |  | 
GQDTMLKAMFSGRVEVLTDAGGWV [KCTD13] | 2.45 ± 0.26 | 2.36 ± 0.35 |  | 
GQPAPPQLLLGRLFRWPDLQHAVE [SMAD6] | 2.63 ± 0.1 | 2.82 ± 0.39 |  | 
GQTTGHPYYLRSFLVVLKTVLENE [FAN1] | 2.46 ± 0.5 | 2.21 ± 0.04 |  | 
GRTHSACDALRTLAEARRLFPGRV [RSAD1] | 2.99 ± 0.29 | 3.44 ± 0.29 |  | 
